From paper PMC6435475, “Structural and functional characterisation of the entry point to pyocyanin biosynthesis in Pseudomonas aeruginosa defines a new 3-deoxy-D-arabino-heptulosonate 7-phosphate synthase subclass” (Bioscience Reports, 2018)

B1: PaeDAH7PS^PA1901 (3-deoxy-D-arabino-heptulosonate 7-phosphate synthase encoded by phzC, Pseudomonas aeruginosa PAO1) (enzyme)
chain: MDDLLQRVRRCEALQQPEWGDPSRLRDVQAYLRGSPALIRAGDILALRATLARVARGEALVVQCGDCAEDMDDHHAENVARKAAVLELLAGALRLAGRRPVIRVGRIAGQYAKPRSKPHEQVGEQTLPVYRGDMVNGREAHAEQRRADPQRILKGYAAARNIMRHLGWDAASGQEANASPVWTSHEMLLLDYELSMLREDEQRRVYLGSTHWPWIGERTRQVDGAHVALLAEVLNPVACKVGPEIGRDQLLALCERLDPRREPGRLTLIARMGAQKVGERLPPLVEAVRAAGHPVIWLSDPMHGNTIVAPCGNKTRLVRSIAEEVAAFRLAVSGSGGVAAGLHLETTPDDVTECVADSSGLHQVSRHYTSLCDPRLNPWQALSAVMAWSGAEAIPSATFPLETVA
notes: 3-deoxy-D-arabino-heptulosonate 7-phosphate synthase (type II DAH7PS) encoded by phzC, ORF PA1901 (duplicated as PA4212), Pseudomonas aeruginosa PAO1; the ORF was amplified from gDNA; residues up to 405 are named; measured mass of a single chain 44470 Da (calculated 44468 Da); Homodimer in solution at low concentration (AUC, SEC-SAXS); homotetramer in the crystal and at high concentration in …

What was measured:
[1] = test system: C=C(OP(=O)(O)O)C(=O)O; assay: purified protein; settings: E4P 150 μM, Co2+ 100 μM, pH 7.5, 37 °C
Source text: (§1) initial-rate UV-Vis spectrophotometric assay on PaeDAH7PS^PA1901 (type II DAH7PS, phzC)

[2] = test system: O=C[C@H](O)[C@H](O)COP(=O)(O)O; assay: purified protein; settings: PEP 150 μM, Co2+ 100 μM, pH 7.5, 37 °C
Source text: as §1

[3] = target: the molecule itself; assay: crystal structure; microbatch crystallisation, protein 3-5 mg/ml (67-112 uM), 0.2 M sodium fluoride, 1 mM cobalt chloride, 1 mM PEP, 18% PEG 3350, 278 K; space group C222(1), two chains in the asymmetric unit, tetramer by a two-fold crystallographic symmetry operation
[4] = target: the molecule itself; assay: SEC-SAXS; injection concentration 8.0 mg/ml (180 uM; also 5.0 mg/ml), Superdex S200, 50 mM bis-tris propane pH 7.5, 100 uM cobalt chloride, 200 uM PEP, 5% glycerol, 293 K; elution peak deconvoluted into two Gaussian components (peaks A and B)

| Molecule | Km [1] | kcat [1] | kcat/Km [1] | Km [2] | kcat [2] | kcat/Km [2] | stoichiometry N [3] | stoichiometry N [4] |
| --- | --- | --- | --- | --- | --- | --- | --- | --- |
| PaeDAH7PS^PA1901 (type II DAH7PS, phzC) (Pseudomonas aeruginosa PAO1) | 17 ± 1 µM | 19.8 ± 0.4 s⁻¹ | 1.16e+06 ± 100000 M⁻¹ s⁻¹ | 16 ± 3 µM | 19.8 ± 0.4 s⁻¹ | 1.24e+06 ± 150000 M⁻¹ s⁻¹ |  |  |
| B1 |  |  |  |  |  |  | 4 | 2 |
